# According to paper PMC10540216, “Activity Guided Azide-methyllysine Photo-trapping for Substrate Profiling of Lysine Demethylases” (Journal of the American Chemical Society, 2023):
# Tested on: KDM4A-I71AzF
# Assay: CASI: photo-crosslinking with HEK293T cell extracts, StrepTactin enrichment and LC-MS/MS proteomics;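 note: lysates from HEK293T cells pretreated with a KDM4 inhibitor to raise proteome methylation, affinity-purified after ±UV, gel-resolved, trypsin-digested, with exclusive unique peptides per protein averaged per condition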
# Format: binding, human
# Settings: sheet "Final results but with 0.01"
row,Molecule,Fold change (+UV/-UV)
1,"P66A_HUMAN (protein, UniProt Q86YP4 1-633, looked up) Transcriptional repressor …: MTEEACRTRSQKRALERDPTEDDVESKKIKMERGLLASDLNTDGDMRVTPEPGAGPTQGLLRATEATAMAMGRGEGLVGDGPVDMRTSHSDMKSERRPPSPDVIVLSDNEQPSSPRVNGLTTVALKETSTEALMKSSPEERERMIKQLKEELRLEEAKLVLLKKLRQSQIQKEATAQKPTGSVGSTVTTPPPLVRGTQNIPAGKPSLQTSSARMPGSVIPPPLVRGGQQASSKLGPQASSQVVMPPLVRGAQQIHSIRQHSSTGPPPLLLAPRASVPSVQIQGQRIIQQGLIRVANVPNTSLLVNIPQPTPASLKGTTATSAQANSTPTSVASVVTSAESPASRQAAAKLALRKQLEKTLLEIPPPKPPAPEMNFLPSAANNEFIYLVGLEEVVQNLLETQGRMSAATVLSREPYMCAQCKTDFTCRWREEKSGAIMCENCMTTNQKKALKVEHTSRLKAAFVKALQQEQEIEQRLLQQGTAPAQAKAEPTAAPHPVLKQVIKPRRKLAFRSGEARDWSNGAVLQASSQLSRGSATTPRGVLHTFSPSPKLQNSASATALVSRTGRHSERTVSAGKGSATSNWKKTPLSTGGTLAFVSPSLAVHKSSSAVDRQREYLLDMIPPRSIPQSATWK",1.5
2,"SATB2_HUMAN (protein, UniProt Q9UPW6 1-733, looked up) DNA-binding protein SATB2: MERRSESPCLRDSPDRRSGSPDVKGPPPVKVARLEQNGSPMGARGRPNGAVAKAVGGLMIPVFCVVEQLDGSLEYDNREEHAEFVLVRKDVLFSQLVETALLALGYSHSSAAQAQGIIKLGRWNPLPLSYVTDAPDATVADMLQDVYHVVTLKIQLQSCSKLEDLPAEQWNHATVRNALKELLKEMNQSTLAKECPLSQSMISSIVNSTYYANVSATKCQEFGRWYKKYKKIKVERVERENLSDYCVLGQRPMHLPNMNQLASLGKTNEQSPHSQIHHSTPIRNQVPALQPIMSPGLLSPQLSPQLVRQQIAMAHLINQQIAVSRLLAHQHPQAINQQFLNHPPIPRAVKPEPTNSSVEVSPDIYQQVRDELKRASVSQAVFARVAFNRTQGLLSEILRKEEDPRTASQSLLVNLRAMQNFLNLPEVERDRIYQDERERSMNPNVSMVSSASSSPSSSRTPQAKTSTPTTDLPIKVDGANINITAAIYDEIQQEMKRAKVSQALFAKVAANKSQGWLCELLRWKENPSPENRTLWENLCTIRRFLNLPQHERDVIYEEESRHHHSERMQHVVQLPPEPVQVLHRQQSQPAKESSPPREEAPPPPPPTEDSCAKKPRSRTKISLEALGILQSFIHDVGLYPDQEAIHTLSAQLDLPKHTIIKFFQNQRYHVKHHGKLKEHLGSAVDVAEYKDEELLTESEENDSEEGSEEMYKVEAEEENADKSKAAPAEIDQR",1
3,"ODP2_HUMAN (protein, UniProt P10515 87-647, looked up) Dihydrolipoyllysine-residue …: SLPPHQKVPLPSLSPTMQAGTIARWEKKEGDKINEGDLIAEVETDKATVGFESLEECYMAKILVAEGTRDVPIGAIICITVGKPEDIEAFKNYTLDSSAAPTPQAAPAPTPAATASPPTPSAQAPGSSYPPHMQVLLPALSPTMTMGTVQRWEKKVGEKLSEGDLLAEIETDKATIGFEVQEEGYLAKILVPEGTRDVPLGTPLCIIVEKEADISAFADYRPTEVTDLKPQVPPPTPPPVAAVPPTPQPLAPTPSAPCPATPAGPKGRVFVSPLAKKLAVEKGIDLTQVKGTGPDGRITKKDIDSFVPSKVAPAPAAVVPPTGPGMAPVPTGVFTDIPISNIRRVIAQRLMQSKQTIPHYYLSIDVNMGEVLLVRKELNKILEGRSKISVNDFIIKASALACLKVPEANSSWMDTVIRQNHVVDVSVAVSTPAGLITPIVFNAHIKGVETIANDVVSLATKAREGKLQPHEFQGGTFTISNLGMFGIKNFSAIINPPQACILAIGASEDKLVPADNEKGFDVASMMSVTLSCDHRVVDGAVGAQWLAEFRKYLEKPITMLL",1
4,"LMNB2_HUMAN (protein, UniProt Q03252 1-617, looked up) Lamin-B2: MSPPSPGRRREQRRPRAAATMATPLPGRAGGPATPLSPTRLSRLQEKEELRELNDRLAHYIDRVRALELENDRLLLKISEKEEVTTREVSGIKALYESELADARRVLDETARERARLQIEIGKLRAELDEVNKSAKKREGELTVAQGRVKDLESLFHRSEVELAAALSDKRGLESDVAELRAQLAKAEDGHAVAKKQLEKETLMRVDLENRCQSLQEELDFRKSVFEEEVRETRRRHERRLVEVDSSRQQEYDFKMAQALEELRSQHDEQVRLYKLELEQTYQAKLDSAKLSSDQNDKAASAAREELKEARMRLESLSYQLSGLQKQASAAEDRIRELEEAMAGERDKFRKMLDAKEQEMTEMRDVMQQQLAEYQELLDVKLALDMEINAYRKLLEGEEERLKLSPSPSSRVTVSRATSSSSGSLSATGRLGRSKRKRLEVEEPLGSGPSVLGTGTGGSGGFHLAQQASASGSVSIEEIDLEGKFVQLKNNSDKDQSLGNWRIKRQVLEGEEIAYKFTPKYILRAGQMVTVWAAGAGVAHSPPSTLVWKGQSSWGTGESFRTVLVNADGEEVAMRTVKKSSVMRENENGEEEEEEAEFGEEDLFHQQGDPRTTSRGC",0.5
5,"ILF3_HUMAN (protein, UniProt Q12906 1-894, looked up) Interleukin enhancer-binding …: MRPMRIFVNDDRHVMAKHSSVYPTQEELEAVQNMVSHTERALKAVSDWIDEQEKGSSEQAESDNMDVPPEDDSKEGAGEQKTEHMTRTLRGVMRVGLVAKGLLLKGDLDLELVLLCKEKPTTALLDKVADNLAIQLAAVTEDKYEILQSVDDAAIVIKNTKEPPLSLTIHLTSPVVREEMEKVLAGETLSVNDPPDVLDRQKCLAALASLRHAKWFQARANGLKSCVIVIRVLRDLCTRVPTWGPLRGWPLELLCEKSIGTANRPMGAGEALRRVLECLASGIVMPDGSGIYDPCEKEATDAIGHLDRQQREDITQSAQHALRLAAFGQLHKVLGMDPLPSKMPKKPKNENPVDYTVQIPPSTTYAITPMKRPMEEDGEEKSPSKKKKKIQKKEEKAEPPQAMNALMRLNQLKPGLQYKLVSQTGPVHAPIFTMSVEVDGNSFEASGPSKKTAKLHVAVKVLQDMGLPTGAEGRDSSKGEDSAEETEAKPAVVAPAPVVEAVSTPSAAFPSDATAEQGPILTKHGKNPVMELNEKRRGLKYELISETGGSHDKRFVMEVEVDGQKFQGAGSNKKVAKAYAALAALEKLFPDTPLALDANKKKRAPVPVRGGPKFAAKPHNPGFGMGGPMHNEVPPPPNLRGRGRGGSIRGRGRGRGFGGANHGGYMNAGAGYGSYGYGGNSATAGYSQFYSNGGHSGNASGGGGGGGGGSSGYGSYYQGDNYNSPVPPKHAGKKQPHGGQQKPSYGSGYQSHQGQQQSYNQSPYSNYGPPQGKQKGYNHGQGSYSYSNSYNSPGGGGGSDYNYESKFNYSGSGGRSGGNSYGSGGASYNPGSHGGYGGGSGGGSSYQGKQGGYSQSNYNSPGSGQNYSGPPSSYQSSQGGYGRNADHSMNYQYR",0.5
6,"NU107_HUMAN (protein, UniProt P57740 1-925, looked up) Nuclear pore complex protein …: MDRSGFGEISSPVIREAEVTRTARKQSAQKRVLLQASQDENFGNTTPRNQVIPRTPSSFRQPFTPTSRSLLRQPDISCILGTGGKSPRLTQSSGFFGNLSMVTNLDDSNWAAAFSSQRSGLFTNTEPHSITEDVTISAVMLREDDPGEAASMSMFSDFLQSFLKHSSSTVFDLVEEYENICGSQVNILSKIVSRATPGLQKFSKTASMLWLLQQEMVTWRLLASLYRDRIQSALEEESVFAVTAVNASEKTVVEALFQRDSLVRQSQLVVDWLESIAKDEIGEFSDNIEFYAKSVYWENTLHTLKQRQLTSYVGSVRPLVTELDPDAPIRQKMPLDDLDREDEVRLLKYLFTLIRAGMTEEAQRLCKRCGQAWRAATLEGWKLYHDPNVNGGTELEPVEGNPYRRIWKISCWRMAEDELFNRYERAIYAALSGNLKQLLPVCDTWEDTVWAYFRVMVDSLVEQEIQTSVATLDETEELPREYLGANWTLEKVFEELQATDKKRVLEENQEHYHIVQKFLILGDIDGLMDEFSKWLSKSRNNLPGHLLRFMTHLILFFRTLGLQTKEEVSIEVLKTYIQLLIREKHTNLIAFYTCHLPQDLAVAQYALFLESVTEFEQRHHCLELAKEADLDVATITKTVVENIRKKDNGEFSHHDLAPALDTGTTEEDRLKIDVIDWLVFDPAQRAEALKQGNAIMRKFLASKKHEAAKEVFVKIPQDSIAEIYNQCEEQGMESPLPAEDDNAIREHLCIRAYLEAHETFNEWFKHMNSVPQKPALIPQPTFTEKVAHEHKEKKYEMDFGIWKGHLDALTADVKEKMYNVLLFVDGGWMVDVREDAKEDHERTHQMVLLRKLCLPMLCFLLHTILHSTGQYQECLQLADMVSSERHKLYLVFSKEELRKLLQKLRESSLMLLDQGLDPLGYEIQL",2
7,"CSTF3_HUMAN (protein, UniProt Q12996 2-717, looked up) Cleavage stimulation factor …: SGDGATEQAAEYVPEKVKKAEKKLEENPYDLDAWSILIREAQNQPIDKARKTYERLVAQFPSSGRFWKLYIEAEIKAKNYDKVEKLFQRCLMKVLHIDLWKCYLSYVRETKGKLPSYKEKMAQAYDFALDKIGMEIMSYQIWVDYINFLKGVEAVGSYAENQRITAVRRVYQRGCVNPMINIEQLWRDYNKYEEGINIHLAKKMIEDRSRDYMNARRVAKEYETVMKGLDRNAPSVPPQNTPQEAQQVDMWKKYIQWEKSNPLRTEDQTLITKRVMFAYEQCLLVLGHHPDIWYEAAQYLEQSSKLLAEKGDMNNAKLFSDEAANIYERAISTLLKKNMLLYFAYADYEESRMKYEKVHSIYNRLLAIEDIDPTLVYIQYMKFARRAEGIKSGRMIFKKAREDTRTRHHVYVTAALMEYYCSKDKSVAFKIFELGLKKYGDIPEYVLAYIDYLSHLNEDNNTRVLFERVLTSGSLPPEKSGEIWARFLAFESNIGDLASILKVEKRRFTAFKEEYEGKETALLVDRYKFMDLYPCSASELKALGYKDVSRAKLAAIIPDPVVAPSIVPVLKDEVDRKPEYPKPDTQQMIPFQPRHLAPPGLHPVPGGVFPVPPAAVVLMKLLPPPICFQGPFVQVDELMEIFRRCKIPNTVEEAVRIITGGAPELAVEGNGPVESNAVLTKAVKRPNEDSDEDEEKGAVVPPVHDIYRARQQKRIR",0
8,"SYG_HUMAN (protein, UniProt P41250 37-739, looked up) Glycine--tRNA ligase: SAASCPPISLPAAASRSSMDGAGAEEVLAPLRLAVRQQGDLVRKLKEDKAPQVDVDKAVAELKARKRVLEAKELALQPKDDIVDRAKMEDTLKRRFFYDQAFAIYGGVSGLYDFGPVGCALKNNIIQTWRQHFIQEEQILEIDCTMLTPEPVLKTSGHVDKFADFMVKDVKNGECFRADHLLKAHLQKLMSDKKCSVEKKSEMESVLAQLDNYGQQELADLFVNYNVKSPITGNDLSPPVSFNLMFKTFIGPGGNMPGYLRPETAQGIFLNFKRLLEFNQGKLPFAAAQIGNSFRNEISPRSGLIRVREFTMAEIEHFVDPSEKDHPKFQNVADLHLYLYSAKAQVSGQSARKMRLGDAVEQGVINNTVLGYFIGRIYLYLTKVGISPDKLRFRQHMENEMAHYACDCWDAESKTSYGWIEIVGCADRSCYDLSCHARATKVPLVAEKPLKEPKTVNVVQFEPSKGAIGKAYKKDAKLVMEYLAICDECYITEMEMLLNEKGEFTIETEGKTFQLTKDMINVKRFQKTLYVEEVVPNVIEPSFGLGRIMYTVFEHTFHVREGDEQRTFFSFPAVVAPFKCSVLPLSQNQEFMPFVKELSEALTRHGVSHKVDDSSGSIGRRYARTDEIGVAFGVTIDFDTVNKTPHTATLRDRDSMRQIRAEISELPSIVQDLANGNITWADVEARYPLFEGQETGKKETIEE",1
